The subject of data set [1] is HeLa Kyoto. The experiment in a line: solubility in G1/S (NP-40 vs SDS abundance) (log2 ratio); higher = more soluble. The following applies: cell cycle stage: G1/S.
The subject of data set [2] is HeLa Kyoto. The data set is described as follows: melting temperature (median over replicates), in situ; higher = more thermally stable.
Data set [3] relates to HeLa Kyoto. The experiment in a line: solubility change mitosis vs G1/S (difference of NP-40 vs SDS log2 ratios) (log2 ratio difference); higher = more soluble in mitosis.
Data set [4] concerns HeLa Kyoto. The data set is described as follows: thermal stability score vs G1/S (z-score of summed log2 fold changes over temperatures); higher = more thermally stable than in G1/S.
Where [5] appears, read: cell cycle stage: early G1 (4.5 h after nocodazole release).
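For melting temperature (median over replicates), in situ in this document: HeLa Kyoto cells synchronized by double thymidine or nocodazole block, proteins quantified by TMT10plex mass spectrometry, three independent biological replicates.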
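For solubility change mitosis vs G1/S (difference of NP-40 vs SDS log2 ratios) in this document: synchronized HeLa Kyoto cells (double thymidine block for G1/S, nocodazole release for mitosis), protein amounts in NP-40 versus SDS lysates quantified by mass spectrometry, three biological replicates.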
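For solubility in G1/S (NP-40 vs SDS abundance) in this document: HeLa Kyoto cells arrested at G1/S by double thymidine block, proteins quantified by TMT10plex mass spectrometry in mild NP-40 versus SDS extracts, three biological replicates.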
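For thermal stability score vs G1/S (z-score of summed log2 fold changes over temperatures) in this document: synchronized HeLa Kyoto cells, proteins quantified by TMT10plex mass spectrometry, three biological replicates, mitosis taken 0.5 h after nocodazole release, G1/S directly after double thymidine block.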

Turning to “MEADKDDTQQILKEHSPDEFIKDEQNKGLIDEITKKNIQLKKEIQKLETELQEATKEFQIKEDIPETKMKFLSVETPENDSQLSNISCSFQVSSKVPYEIQKGQALITFEKEEVAQNVVSMSKHHVQIKDVNLEVTAKPVPLNSGVRFQVYVEVSKMKINVTEIPDTLREDQMRDKLELSFSKSRNGGGEVDRVDYDRQSGSAVITFVEIGVADKILKKKEYPLYINQTCHRVTVSPYTEIHLKKYQIFSGTSKRTVLLTGMEGIQMDEEIVEDLINIHFQRAKNGGGEVDVVKCSLGQPHIAYFEE [NMI]”, the “solubility in G1/S (log2)” value in data set [1] was determined as 0.127. Also, the melting temperature in data set [2] (cell cycle stage: G1/S) worked out at 55.4 °C; in data set [2] (cell cycle stage: mitosis), 55.7 °C. Also, the “solubility change mitosis (log2)” value in data set [3] was -0.0719. In addition, the thermal stability score in data set [4] (setting [5]) was -1.52; in data set [4] (cell cycle stage: mitosis), -4.03.
On to “MEALILEPSLYTVKAILILDNDGDRLFAKYYDDTYPSVKEQKAFEKNIFNKTHRTDSEIALLEGLTVVYKSSIDLYFYVIGSSYENELMLMAVLNCLFDSLSQMLRKNVEKRALLENMEGLFLAVDEIVDGGVILESDPQQVVHRVALRGEDVPLTEQTVSQVLQSAKEQIKWSLLR [COPZ1]”, for which, in data set [1], the “solubility in G1/S (log2)” value stood at 0.235. Further, the values for the melting temperature in data set [2] (cell cycle stage: G1/S) and in data set [2] (cell cycle stage: mitosis) were 52.4 °C and 53.1 °C, respectively. Also, the “solubility change mitosis (log2)” value in data set [3] was found to be 0.197. In addition, the thermal stability score was -1.54 in data set [4] (setting [5]) and -1.52 in data set [4] (cell cycle stage: mitosis).
Consider “MEALPLLAATTPDHGRHRRLLLLPLLLFLLPAGAVQGWETEERPRTREEECHFYAGGQVYPGEASRVSVADHSLHLSKAKISKPAPYWEGTAVIDGEFKELKLTDYRGKYLVFFFYPLDFTFVCPTEIIAFGDRLEEFRSINTEVVACSVDSQFTHLAWINTPRRQGGLGPIRIPLLSDLTHQISKDYGVYLEDSGHTLRGLFIIDDKGILRQITLNDLPVGRSVDETLRLVQAFQYTDKHGEVCPAGWKPGSETIIPDPAGKLKYFDKLN [PRDX4]”, for which the “solubility in G1/S (log2)” value in data set [1] is -0.00958. In addition, the melting temperature was determined as 58.4 °C in data set [2] (cell cycle stage: G1/S) and 62.8 °C in data set [2] (cell cycle stage: mitosis). The “solubility change mitosis (log2)” value in data set [3] is -0.0673. Besides, the thermal stability score in data set [4] (setting [5]) was -1.92; in data set [4] (cell cycle stage: mitosis), -4.08.
As for “MEALSRAGQEMSLAALKQHDPYITSIADLTGQVALYTFCPKANQWEKTDIEGTLFVYRRSASPYHGFTIVNRLNMHNLVEPVNKDLEFQLHEPFLLYRNASLSIYSIWFYDKNDCHRIAKLMADVVEEETRRSQQAARDKQSPSQANGCSDHRPIDILEMLSRAKDEYERNQMGDSNISSPGLQPSTQLSNLGSTETLEEMPSGSQDKSAPSGHKHLTVEELFGTSLPKEQPAVVGLDSEEMERLPGDASQKEPNSFLPFPFEQLGGAPQSETLGVPSAAHHSVQPEITTPVLITPASITQSNEKHAPTYTIPLSPVLSPTLPAEAPTAQVPPSLPRNSTMMQAVKTTPRQRSPLLNQPVPELSHASLIANQSPFRAPLNVTNTAGTSLPSVDLLQKLRLTPQHDQIQTQPLGKGAMVASFSPAAGQLATPESFIEPPSKTAAARVAASASLSNMVLAPLQSMQQNQDPEVFVQPKVLSSAIPVAGAPLVTATTTAVSSVLLAPSVFQQTVTRSSDLERKASSPSPLTIGTPESQRKPSIILSKSQLQDTLIHLIKNDSSFLSTLHEVYLQVLTKNKDNHNL [DCP1A]”, in data set [1], the “solubility in G1/S (log2)” value amounted to 0.265. The results for the melting temperature in data set [2] (cell cycle stage: G1/S) and in data set [2] (cell cycle stage: mitosis) were 50.5 °C and 50.9 °C, respectively. For the same sequence, the “solubility change mitosis (log2)” value in data set [3] is -0.0577. Also, the thermal stability score in data set [4] (setting [5]) was -0.228; in data set [4] (cell cycle stage: mitosis), 1.27.
For “MEANWTAFLFQAHEASHHQQQAAQNSLLPLLSSAVEPPDQKPLLPIPITQKPQGAPETLKDAIGIKKEKPKTSFVCTYCSKAFRDSYHLRRHESCHTGIKLVSRPKKTPTTVVPLISTIAGDSSRTSLVSTIAGILSTVTTSSSGTNPSSSASTTAMPVTQSVKKPSKPVKKNHACEMCGKAFRDVYHLNRHKLSHSDEKPFECPICNQRFKRKDRMTYHVRSHEGGITKPYTCSVCGKGFSRPDHLSCHVKHVHSTERPFKCQTCTAAFATKDRLRTHMVRHEGKVSCNICGKLLSAAYITSHLKTHGQSQSINCNTCKQGISKTCMSEETSNQKQQQQQQQQQQQQQQQQQQHVTSWPGKQVETLRLWEEAVKARKKEAANLCQTSTAATTPVTLTTPFSITSSVSSGTMSNPVTVAAAMSMRSPVNVSSAVNITSPMNIGHPVTITSPLSMTSPLTLTTPVNLPTPVTAPVNIAHPVTITSPMNLPTPMTLAAPLNIAMRPVESMPFLPQALPTSPPW [VEZF1]”, in data set [1], the “solubility in G1/S (log2)” value was 0.142. The melting temperature in data set [2] (cell cycle stage: G1/S) was determined as 55.4 °C. For the same sequence, the “solubility change mitosis (log2)” value in data set [3] turned out to be 0.0342. Also, the thermal stability score in data set [4] (setting [5]) was determined as 0.665; in data set [4] (cell cycle stage: mitosis), 0.5.
In the case of “MEAQAQGLLETEPLQGTDEDAVASADFSSMLSEEEKEELKAELVQLEDEITTLRQVLSAKERHLVEIKQKLGMNLMNELKQNFSKSWHDMQTTTAYKKTHETLSHAGQKATAAFSNVGTAISKKFGDMSYSIRHSISMPAMRNSPTFKSFEERVETTVTSLKTKVGGTNPNGGSFEEVLSSTAHASAQSLAGGSRRTKEEELQC [TPD52L1]”, the “solubility in G1/S (log2)” value in data set [1] was found to be 0.458. In addition, the melting temperature was 54.4 °C in data set [2] (cell cycle stage: G1/S) and 53.6 °C in data set [2] (cell cycle stage: mitosis). Moreover, the “solubility change mitosis (log2)” value in data set [3] is 0.111. Moreover, the figures for the thermal stability score in data set [4] (setting [5]) and in data set [4] (cell cycle stage: mitosis) were -3.64 and -3.95, respectively.

The values are drawn from the supplement of paper PMC5998384.
